Data reported in US20240400657A1 (MorphoSys, published 2024).
Residue numbers refer to the chain shown, from its start.

T1: C5aR expressed on purified human neutrophils (human, UniProt P21730 1-350)
T1 sequence (looked up): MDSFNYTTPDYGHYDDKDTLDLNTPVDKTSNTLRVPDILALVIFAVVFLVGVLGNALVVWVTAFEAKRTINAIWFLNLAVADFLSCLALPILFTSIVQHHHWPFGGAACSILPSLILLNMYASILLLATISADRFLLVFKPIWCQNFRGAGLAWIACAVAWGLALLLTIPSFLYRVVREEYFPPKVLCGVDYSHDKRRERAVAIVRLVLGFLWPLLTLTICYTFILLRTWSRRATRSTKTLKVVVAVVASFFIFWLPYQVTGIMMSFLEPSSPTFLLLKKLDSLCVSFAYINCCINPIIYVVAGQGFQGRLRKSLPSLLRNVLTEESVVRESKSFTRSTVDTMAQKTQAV

T2: full-length human ChemR23 expressed on CHO Flp-In cells (human, UniProt Q99788 1-373)
T2 construct: also called Chemokine-like receptor 1
T2 sequence: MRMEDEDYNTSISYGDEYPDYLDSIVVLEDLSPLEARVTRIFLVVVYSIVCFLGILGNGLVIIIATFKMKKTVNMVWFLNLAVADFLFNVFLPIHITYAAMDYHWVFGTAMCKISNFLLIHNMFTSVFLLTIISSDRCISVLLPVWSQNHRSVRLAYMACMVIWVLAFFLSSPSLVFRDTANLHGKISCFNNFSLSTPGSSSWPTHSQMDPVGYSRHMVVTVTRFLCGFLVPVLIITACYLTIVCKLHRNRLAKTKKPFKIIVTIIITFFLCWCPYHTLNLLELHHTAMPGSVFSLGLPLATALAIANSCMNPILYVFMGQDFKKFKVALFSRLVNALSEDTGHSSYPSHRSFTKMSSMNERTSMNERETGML

T3: full length rat C5aR stably expressed on CHO Flp-In cells (rat (Rattus norvegicus), UniProt P97520 1-352)
T3 sequence: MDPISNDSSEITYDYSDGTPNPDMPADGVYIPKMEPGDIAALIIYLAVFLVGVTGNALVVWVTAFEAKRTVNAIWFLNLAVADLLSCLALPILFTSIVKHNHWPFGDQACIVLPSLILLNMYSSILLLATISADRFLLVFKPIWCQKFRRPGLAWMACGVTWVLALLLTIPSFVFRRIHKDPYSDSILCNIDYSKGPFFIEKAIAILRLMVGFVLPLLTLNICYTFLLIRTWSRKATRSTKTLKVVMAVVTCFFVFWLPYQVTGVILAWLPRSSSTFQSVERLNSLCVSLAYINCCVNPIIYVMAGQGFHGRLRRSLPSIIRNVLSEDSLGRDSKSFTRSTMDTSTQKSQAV

T4: engineered version of human C5aR expressed on CHO cells of the PathHunter β-arrestin assay (DiscoveRx) (human, UniProt P21730 1-350)
T4 sequence (looked up): T1 sequence (looked up)

B1: MAB #2 (antibody, human IgG1, lambda)
heavy: EVQLVESGGGLVKPGGSLRLSCAASGFTFSSYAMHWVRQAPGKGLEWVGRIKSVAQGGTTDYAAHVKGRFTISRDDSKNTLYLQMNSLKTEDTAVYYCARVSHSTFDVWGQGTLVTVSSASTKGPSVFPLAPSSKSTSGGTAALGCLVKDYFPEPVTVSWNSGALTSGVHTFPAVLQSSGLYSLSSVVTVPSSSLGTQTYICNVNHKPSNTKVDKRVEPKSCDKTHTCPPCPAPEAEGAPSVFLFPPKPKDTLMISRTPEVTCVVVDVSHEDPEVKFNWYVDGVEVHNAKTKPREEQYNSTYRVVSVLTVLHQDWLNGKEYKCKVSNKALPSSIEKTISKAKGQPREPQVYTLPPSREEMTKNQVSLTCLVKGFYPSDIAVEWESNGQPENNYKTTPPVLDSDGSFFLYSKLTVDKSRWQQGNVFSCSVMHEALHNHYTQKSLSLSPGK
light: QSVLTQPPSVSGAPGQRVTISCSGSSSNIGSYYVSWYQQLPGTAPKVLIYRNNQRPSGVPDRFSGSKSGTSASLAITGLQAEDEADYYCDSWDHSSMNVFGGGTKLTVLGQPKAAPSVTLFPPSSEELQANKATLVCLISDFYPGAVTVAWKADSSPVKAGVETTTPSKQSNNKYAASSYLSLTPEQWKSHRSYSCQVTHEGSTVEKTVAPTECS
notes: lambda 1 light chain
B2: MAB #1 (antibody, human IgG1, lambda)
heavy: B1 heavy with V54K, H103F
light: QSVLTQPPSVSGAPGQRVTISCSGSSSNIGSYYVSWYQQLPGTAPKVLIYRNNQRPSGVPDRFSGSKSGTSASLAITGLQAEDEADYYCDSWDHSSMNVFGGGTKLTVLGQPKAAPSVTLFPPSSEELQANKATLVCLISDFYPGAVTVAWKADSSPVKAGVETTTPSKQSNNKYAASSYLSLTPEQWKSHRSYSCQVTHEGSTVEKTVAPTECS
notes: lambda 1 light chain, VH3-15 framework

Legend:
[1] = target: T5, HIS6-human C5aR (D/K variant)-HV1B1-GAG (human); assay: ELISA on coated VLPs, IgG titration (N = 2)
T5 construct: the VLPs were coated for ELISA; also called huC5aR (D/K); human C5aR D/K variant on VLPs

[2] = target: T6, HIS6-human C5aR (N/N variant)-HV1B1-GAG (human); assay: ELISA on coated VLPs, IgG titration (N = 2)
T6 construct: also called huC5aR (N/N); human C5aR N/N variant on VLPs

[3] = target: T1, C5aR expressed on purified human …; assay: cell-based or functional assay
[4] = target: T7, Cell surface rec. 1_Lys (h); assay: Protein Panel Profiling (3P), MSD ECL, coated antigen, IgG 10 nM
T7 construct: identity not disclosed
Method: (§1) 32 different proteins and controls were coated on two 384-well MSD standard plates at a concentration of 1.0 μg/mL at 4° C. over night. The coating solution was discarded and plates were blocked with 50 μL 3% (w/v) BSA in PBS for one hour at RT on a microtiter plate shaker (˜500 rpm) followed by three washing steps with 50 μL washing buffer (PBS with 0.05% (v/v) Tween 20). IgG samples were diluted to 100 nM and 10 nM in assay buffer (PBS with 0.5% (w/v) BSA, 0.05% (v/v) Tween 20). As controls, isotype control antibody MOR03207 (IgG1f_AEASS) and assay buffer were used. Samples and controls were added at 30 μL/well and incubated for three hours at RT on a microtiter plate shaker. The plates were washed three times and 30 μL detection antibody (ECL-labeled anti-human Fab) were added per well and incubated for one hour on a microtiter plate shaker (˜500 rpm). After washing the MSD plate and adding 35 μL/well MSD Read Buffer T with surfactant, electro-chemiluminescence signals were detected using a SECTOR® Imager S600 instrument (Meso Scale Diagnostics).
(§2) For evaluation, binding signals of the antibody sample to a certain protein were divided by the respective binding signals of the reference antibody MOR03207 resulting in a binding ratio (BR). The cumulative binding ratio (CBR) of all proteins except the controls (25 in total) was then calculated: CBR up to 150 indicates an IgG without detectable unspecific binding. Values above 150 indicates an IgG with increased unspecific binding compared to the reference antibody MOR03207.

Trypsinogen = assay: as above
Method: as §1, §2

bovine transferrin = bovine transferrin (bovine, UniProt Q29443 20-704); assay: as above
Method: as §1, §2

Antitrypsin = assay: as above
Method: as §1, §2

Serum albumin (h) = target: T8, Serum albumin (h) (human); assay: as above
T8 construct: '(h)' on the sheet read as human
Method: as §1, §2

Hemoglobin (h) = target: T9, Hemoglobin (h) (human); assay: as above
T9 construct: '(h)' on the sheet read as human
Method: as §1, §2

GFP = assay: as above
Method: as §1, §2

Lectin = assay: as above
Method: as §1, §2

Myoglobin = assay: as above
Method: as §1, §2

Protein A = target: T10, Protein A; assay: as above
T10 construct: control of the 3P panel
Method: as §1, §2

Trypsin inhibitor = assay: as above
Method: as §1, §2

Cytochrome C = assay: as above
Method: as §1, §2

Pepsinogen = assay: as above
Method: as §1, §2

Fibrinogen (b) = Fibrinogen (b) (bovine); assay: as above
Method: as §1, §2

Amyloglycosidase = assay: as above
Method: as §1, §2

[5] = target: T2, full-length human ChemR23 expressed on …; assay: FACS, CHO Flp-In cells expressing human ChemR23, single IgG concentration
[6] = target: T3, full length rat C5aR stably expressed …; assay: FACS, CHO Flp-In cells expressing rat C5aR, single IgG concentration
rat transferrin = rat transferrin (rat, UniProt P12346 20-698); assay: Octet based binding assay
cynomolgus transferrin = cynomolgus transferrin (cynomolgus, UniProt A0A2K5UXZ0 20-695); assay: Octet based binding assay
[7] = target: T4, engineered version of human C5aR …; assay: cell-based or functional assay

T8 sequence (P02768 25-609): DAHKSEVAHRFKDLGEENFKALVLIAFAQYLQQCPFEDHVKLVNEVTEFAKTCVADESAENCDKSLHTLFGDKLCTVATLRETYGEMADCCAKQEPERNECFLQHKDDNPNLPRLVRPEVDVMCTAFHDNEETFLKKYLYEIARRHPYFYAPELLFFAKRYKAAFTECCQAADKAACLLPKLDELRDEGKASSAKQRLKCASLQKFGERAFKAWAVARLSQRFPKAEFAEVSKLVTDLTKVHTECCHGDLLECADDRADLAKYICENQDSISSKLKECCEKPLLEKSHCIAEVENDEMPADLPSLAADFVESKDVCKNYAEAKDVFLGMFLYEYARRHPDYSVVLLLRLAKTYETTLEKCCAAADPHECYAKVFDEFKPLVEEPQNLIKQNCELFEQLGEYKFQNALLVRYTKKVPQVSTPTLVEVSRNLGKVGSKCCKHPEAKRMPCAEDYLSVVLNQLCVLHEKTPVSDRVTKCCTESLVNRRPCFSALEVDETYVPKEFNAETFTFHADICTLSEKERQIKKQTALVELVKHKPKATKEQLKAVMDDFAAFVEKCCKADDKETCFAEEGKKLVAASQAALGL
Fibrinogen (b) (bovine), sequence (P02672 20-615, chain 1 of 3): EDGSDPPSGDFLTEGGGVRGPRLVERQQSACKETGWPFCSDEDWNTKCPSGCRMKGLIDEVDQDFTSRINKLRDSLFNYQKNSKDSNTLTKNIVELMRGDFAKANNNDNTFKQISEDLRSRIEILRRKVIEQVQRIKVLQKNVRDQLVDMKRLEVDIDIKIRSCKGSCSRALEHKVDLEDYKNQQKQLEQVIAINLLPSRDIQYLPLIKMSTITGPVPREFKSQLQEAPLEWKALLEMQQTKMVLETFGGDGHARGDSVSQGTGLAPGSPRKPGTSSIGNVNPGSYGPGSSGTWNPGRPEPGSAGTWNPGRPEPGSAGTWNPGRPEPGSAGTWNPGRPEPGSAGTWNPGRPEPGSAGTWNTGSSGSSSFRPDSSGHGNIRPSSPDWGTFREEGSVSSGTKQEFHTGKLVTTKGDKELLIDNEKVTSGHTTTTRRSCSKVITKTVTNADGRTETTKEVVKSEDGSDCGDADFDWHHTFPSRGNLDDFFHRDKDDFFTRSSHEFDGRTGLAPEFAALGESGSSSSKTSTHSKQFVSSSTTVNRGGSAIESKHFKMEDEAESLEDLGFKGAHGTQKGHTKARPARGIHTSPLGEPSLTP
Fibrinogen (b) (bovine), sequence (P02676 whole entry, chain 2 of 3, further chain): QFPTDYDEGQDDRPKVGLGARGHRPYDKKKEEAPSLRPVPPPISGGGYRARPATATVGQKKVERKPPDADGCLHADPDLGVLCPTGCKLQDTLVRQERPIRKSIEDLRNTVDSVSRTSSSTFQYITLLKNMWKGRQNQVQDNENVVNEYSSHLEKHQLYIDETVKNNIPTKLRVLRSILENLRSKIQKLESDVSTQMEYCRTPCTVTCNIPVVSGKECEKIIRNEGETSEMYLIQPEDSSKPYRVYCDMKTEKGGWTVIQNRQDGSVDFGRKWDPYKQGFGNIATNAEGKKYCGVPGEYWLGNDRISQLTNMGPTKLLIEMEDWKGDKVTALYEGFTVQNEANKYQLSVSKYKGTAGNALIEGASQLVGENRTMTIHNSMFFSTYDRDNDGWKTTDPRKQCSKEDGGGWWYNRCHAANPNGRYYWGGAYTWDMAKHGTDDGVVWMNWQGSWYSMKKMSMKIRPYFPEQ
Fibrinogen (b) (bovine), sequence (P12799 25-444, chain 3 of 3, further chain): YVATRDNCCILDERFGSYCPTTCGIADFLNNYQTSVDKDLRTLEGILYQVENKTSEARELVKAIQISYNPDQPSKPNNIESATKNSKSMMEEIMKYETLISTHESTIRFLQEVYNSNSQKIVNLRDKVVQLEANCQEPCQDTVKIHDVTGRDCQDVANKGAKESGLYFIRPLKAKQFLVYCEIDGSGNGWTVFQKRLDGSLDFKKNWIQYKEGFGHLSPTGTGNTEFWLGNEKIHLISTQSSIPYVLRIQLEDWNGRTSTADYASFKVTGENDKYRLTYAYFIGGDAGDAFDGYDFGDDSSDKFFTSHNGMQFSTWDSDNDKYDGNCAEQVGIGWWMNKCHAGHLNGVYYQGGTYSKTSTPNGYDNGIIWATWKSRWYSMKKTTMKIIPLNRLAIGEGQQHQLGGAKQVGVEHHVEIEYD
rat transferrin, sequence (P12346 20-698 limits assumed): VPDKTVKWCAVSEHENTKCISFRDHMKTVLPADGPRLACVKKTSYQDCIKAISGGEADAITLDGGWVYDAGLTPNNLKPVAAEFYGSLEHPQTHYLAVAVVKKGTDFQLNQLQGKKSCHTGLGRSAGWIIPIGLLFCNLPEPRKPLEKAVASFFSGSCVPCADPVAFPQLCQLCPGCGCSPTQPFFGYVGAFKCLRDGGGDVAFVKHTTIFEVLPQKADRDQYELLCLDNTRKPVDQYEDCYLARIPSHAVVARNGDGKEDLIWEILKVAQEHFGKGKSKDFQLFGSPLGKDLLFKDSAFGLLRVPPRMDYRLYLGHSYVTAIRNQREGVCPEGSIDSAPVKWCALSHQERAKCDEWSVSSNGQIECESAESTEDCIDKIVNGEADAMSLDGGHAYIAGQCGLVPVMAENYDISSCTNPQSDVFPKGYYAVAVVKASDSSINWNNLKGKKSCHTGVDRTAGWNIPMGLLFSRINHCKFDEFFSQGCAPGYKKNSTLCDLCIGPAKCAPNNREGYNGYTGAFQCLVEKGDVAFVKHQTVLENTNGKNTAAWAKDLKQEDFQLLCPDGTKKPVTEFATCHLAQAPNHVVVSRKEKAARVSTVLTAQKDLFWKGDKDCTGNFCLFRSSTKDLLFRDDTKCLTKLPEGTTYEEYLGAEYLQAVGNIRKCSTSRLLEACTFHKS
bovine transferrin, sequence (Q29443 20-704 limits assumed): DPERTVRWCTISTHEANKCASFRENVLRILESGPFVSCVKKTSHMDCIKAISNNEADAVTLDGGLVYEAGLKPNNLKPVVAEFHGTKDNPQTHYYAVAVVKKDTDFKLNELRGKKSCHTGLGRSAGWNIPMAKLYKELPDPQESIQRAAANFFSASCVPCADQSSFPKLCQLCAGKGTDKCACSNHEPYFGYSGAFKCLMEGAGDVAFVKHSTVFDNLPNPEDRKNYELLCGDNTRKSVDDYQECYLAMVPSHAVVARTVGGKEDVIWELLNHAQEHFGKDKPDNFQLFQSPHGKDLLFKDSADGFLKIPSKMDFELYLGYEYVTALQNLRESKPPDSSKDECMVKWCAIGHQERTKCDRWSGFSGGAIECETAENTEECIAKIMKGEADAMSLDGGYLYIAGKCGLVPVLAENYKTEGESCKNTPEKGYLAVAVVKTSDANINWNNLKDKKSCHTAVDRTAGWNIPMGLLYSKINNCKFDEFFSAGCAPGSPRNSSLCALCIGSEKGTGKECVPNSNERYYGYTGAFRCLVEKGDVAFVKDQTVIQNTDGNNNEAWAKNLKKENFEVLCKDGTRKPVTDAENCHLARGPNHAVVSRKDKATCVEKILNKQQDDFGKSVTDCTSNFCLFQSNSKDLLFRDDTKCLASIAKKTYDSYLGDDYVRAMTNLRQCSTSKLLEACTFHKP
T9 sequence (P69905 2-142, chain 1 of 2): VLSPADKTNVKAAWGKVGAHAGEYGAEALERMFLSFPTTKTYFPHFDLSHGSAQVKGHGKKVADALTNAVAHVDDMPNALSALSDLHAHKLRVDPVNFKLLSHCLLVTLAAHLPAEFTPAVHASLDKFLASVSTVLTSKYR
T9 sequence (P68871 2-147, chain 2 of 2, further chain): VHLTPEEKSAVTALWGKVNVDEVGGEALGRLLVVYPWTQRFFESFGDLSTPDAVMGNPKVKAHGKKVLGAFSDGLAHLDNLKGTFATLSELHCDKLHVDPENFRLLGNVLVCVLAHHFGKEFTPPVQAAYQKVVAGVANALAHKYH

| Binder | EC50 [1] | EC50 [2] | IgG concentration for 50% inhibition of CD11b upregulation, granulocytes, 15 nM human C5a [3] | IgG concentration for 50% inhibition of CD11b upregulation, granulocytes, 150 nM human C5a [3] | binding ratio (signal / signal of MOR03207) [4] | binding ratio (signal / signal of MOR03207) (Trypsinogen) | binding ratio (signal / signal of MOR03207) (bovine transferrin) | binding ratio (signal / signal of MOR03207) (Antitrypsin) | binding ratio (signal / signal of MOR03207) (Serum albumin (h)) | binding ratio (signal / signal of MOR03207) (Hemoglobin (h)) | binding ratio (signal / signal of MOR03207) (GFP) | binding ratio (signal / signal of MOR03207) (Lectin) | binding ratio (signal / signal of MOR03207) (Myoglobin) | binding ratio (signal / signal of MOR03207) (Protein A) | binding ratio (signal / signal of MOR03207) (Trypsin inhibitor) | binding ratio (signal / signal of MOR03207) (Cytochrome C) | binding ratio (signal / signal of MOR03207) (Pepsinogen) | binding ratio (signal / signal of MOR03207) (Fibrinogen (b)) | binding ratio (signal / signal of MOR03207) (Amyloglycosidase) | binding result [5] | also measured |
| --- | --- | --- | --- | --- | --- | --- | --- | --- | --- | --- | --- | --- | --- | --- | --- | --- | --- | --- | --- | --- | --- |
| B1 | 0.5 nM | 0.5 nM | 17 nM | 114 nM | 1 | 1 | 4 | 2 | 1 | 1 | 1 | 1 | 1 | 1 | 3 | 1 | 1 | 1 | 1 | no binding (tested: 300 nM) | binding result [6]: no binding (tested: 300 nM); binding result (rat transferrin): no binding; binding result (cynomolgus transferrin): no binding; Activity of human C5a EC50 (nM) in presence of 50 nM anti-C5aR antibody, β-arrestin recruitment [7]: 37 nM; x fold reduced activity of C5a in presence of anti-C5aR antibody (50 nM) [7]: 12.8 fold |
| B2 | 0.5 nM | 0.5 nM | 12 nM | 42 nM | 1 | 1 | 8 | 1 | 2 | 1 | 1 | 1 | 1 | 1 | 2 | 1 | 1 | 1 | 1 | no binding (tested: 300 nM) | binding result [6]: no binding (tested: 300 nM); binding result (rat transferrin): no binding; binding result (cynomolgus transferrin): no binding; Activity of human C5a EC50 (nM) in presence of 50 nM anti-C5aR antibody, β-arrestin recruitment [7]: 37 nM; x fold reduced activity of C5a in presence of anti-C5aR antibody (50 nM) [7]: 12.8 fold |
